# Laboratory results as given in patent US20190381169A1, “PHARMACEUTICAL COMBINATIONS FOR IMMUNOTHERAPY” (Technische Universitat Dresden, priority 2014, published 2019).
# Target: T1, p75^NTR (Mus musculus, UniProt Q9Z0W1)
# T1 construct: endogenous in cells; host or cells: murine plasmacytoid dendritic cells differentiated in vitro from bone marrow with Flt3-L (p75NTR+/+ wildtype; p75NTR-/- as control)
# T1 sequence (Q9Z0W1 32-427): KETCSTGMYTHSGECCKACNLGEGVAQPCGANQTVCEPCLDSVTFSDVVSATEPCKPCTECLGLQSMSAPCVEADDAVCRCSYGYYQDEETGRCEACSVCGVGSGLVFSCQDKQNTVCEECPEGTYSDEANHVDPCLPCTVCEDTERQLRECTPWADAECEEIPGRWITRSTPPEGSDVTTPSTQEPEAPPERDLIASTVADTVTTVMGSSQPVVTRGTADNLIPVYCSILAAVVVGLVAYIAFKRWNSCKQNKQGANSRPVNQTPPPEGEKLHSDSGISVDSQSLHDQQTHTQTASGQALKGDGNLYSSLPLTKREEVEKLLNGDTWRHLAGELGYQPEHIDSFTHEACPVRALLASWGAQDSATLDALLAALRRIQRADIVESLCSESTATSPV
# Experiment: OVA-mediated allergic asthma induced by intratracheal OVA-loaded PDCs
# Format: in vivo
# Description: Heterozygous p75^NTR knockout mice (p75^NTR+/−) were purchased from The Jackson Laboratory (Bar Harbor, Me., USA) and bred under pathogen-free conditions in the animal facility of the TU Dresden. Male and female p75^NTR+/+ and p75^NTR−/− mice were used at 10-12 weeks of age for experiments.
# Murine PDC were generated in vitro as follows: Bone marrow cells were isolated by flushing femur and tibia of mice. Erythrocytes were lysed using ACK buffer. Remaining cells were washed and cultured at a density of 2×10^6 cells per ml in RPMI 1640 medium supplemented with 10% FCS, 1 mM sodium pyruvat, 2 mM L-glutamine, 100 IU per ml penicillin, 100 μg/ml streptomycin, 10 mM HEPES buffer and 0.1 mM β-mercaptoethanol. To differentiate bone marrow cells into PDCs, 100 ng/ml Flt3-L (fms-like tyrosine kinase 3-ligand) was added to the cells. After 8 days of culture PDCs were enriched by removing the CD11b^+ fraction using CD11b Microbeads (Miltenyi Biotec) according to manufacturer instructions. Dead cells were excluded using Dead cell removal Kit (Miltenyi Biotec). Purity of PDCs was evaluated by flow cytometry (CD11b^−CD11c^+B220^+Siglec-H^+).
# To induce allergic asthma, in vitro generated PDCs were incubated with 100 μg/ml ovalbumin (OVA; grade V; Sigma-Aldrich) for 24 h. To sensitize mice, 1×10^6 OVA-loaded PDCs were injected intratracheally to the lungs of anesthetized mice using 24GA i.v. cannula (BD Neoflon™). Control animals received either the same amount of PDCs without OVA or PBS. After 10 days, mice were exposed to 1% w/v OVA-aerosol for 30 min on 3 consecutive days in order to induce allergic reaction. 24 h after last provocation, animals were sacrificed and the immune reaction was examined based on the bronchoalveolar lavage fluid (BALF) cell composition (eosinophils, lymphocytes, macrophages) and pro-inflammatory cytokines spectrum, lung histology and blood serum OVA-specific IgE levels.
# BALF cells were quantified by flow cytometry. Cells were preincubated with FcR blocking reagent to avoid a non-specific binding. The following antibodies were used for staining: CD3-V500, CD4-V450, CD8-PE Cy7, CD11c-APC Cy7, B220-PE, F4/80-PerCP, SiglecF-AF647, Ly6G-FITC. Among lymphocytes (FSC^low/SSC^low) the CD4^+ T helper cells were designated as CD3^posCD4^pos; the CD8^+ T helper cells as CD3^posCD8^pos; B-cells as CD3^negB220^pos; among granulocytes (FSC^low/SSC^high, Ly6G^pos) eosinophils were assigned as SiglecF^posCD11c^neg and neutrophils as SiglecF^neg. Macrophages were assigned as FSC^high highly autofluorescent CD11c^posF4/80^pos cells. Additionally, the cytospins of collected cells were prepared and stained according to Pappenheim's method.
# BALF supernatant was used for quantification of IL-4, IL-5 and IL-13 by ELISA (eBioscience) according to manufacturer instruction.
# Lungs were perfused with PBS and fixed in 4% v/v formaldehyde. 4 μm sections of paraffin-embedded lungs were stained with PAS staining for quantification of inflammation and GobleT-cell hyperplasia.
# NGF is present in the lung and increased during inflammatory processes such as allergic asthma. To investigate the impact of NGF on PDCs during allergen-mediated immune response, p75^NTR+/+ PDCs were incubated with ovalbumin (OVA) in the presence or absence of NGF (100 ng/ml) prior intratracheal instillation to p75^NTR+/+ mice.
# To substantiate the p75^NTR dependent impact of NGF on PDCs during allergen-mediated immune response, p75^NTR+/+ PDCs were incubated with ovalbumin (OVA) and NGF (100 ng/ml) in the presence or absence of the p75^NTR-specific inhibitory peptide PEP5 prior intratracheal instillation to p75^NTR+/+ mice.
# [1] = p75^NTR+/+ PDCs incubated with OVA in presence of NGF (100 ng/ml) vs OVA alone, then intratracheal instillation to p75^NTR+/+ mice
substance,measurement,setting,value
"NGF: Nerve growth factor, best characterized neurotrophin; natural p75^NTR agonist (R&D Systems)",number of macrophages in BALF,OVA up-take by PDCs in presence of NGF vs OVA alone,decreased
same,"production of Th2 cytokines (IL-4, IL-5 and IL-13) in the lung",OVA-loaded PDCs treated with NGF vs pulsed with OVA in absence of NGF,increased production
same,"inflammatory phenotype in the lung (histology: perivascular inflammation, mucus production)",PDCs treated with NGF during OVA-uptake,potentiated the inflammatory phenotype in the lung
same,numbers of eosinophils in BALF,[1],significantly augmented
same,numbers of lymphocytes in BALF,[1],significantly augmented
same,induction of airway inflammation by p75^NTR−/− PDCs,"p75^NTR−/− PDCs loaded with OVA in presence or absence of NGF, data not shown",not able to induce airway inflammation
